Values of other authors as cited in article PMC8886532.

Target: kinetochore receptor (KNL1) (Homo sapiens) (UniProt Q8NG31)
Chain of UniProt Q8NG31 (Q8NG31 whole entry): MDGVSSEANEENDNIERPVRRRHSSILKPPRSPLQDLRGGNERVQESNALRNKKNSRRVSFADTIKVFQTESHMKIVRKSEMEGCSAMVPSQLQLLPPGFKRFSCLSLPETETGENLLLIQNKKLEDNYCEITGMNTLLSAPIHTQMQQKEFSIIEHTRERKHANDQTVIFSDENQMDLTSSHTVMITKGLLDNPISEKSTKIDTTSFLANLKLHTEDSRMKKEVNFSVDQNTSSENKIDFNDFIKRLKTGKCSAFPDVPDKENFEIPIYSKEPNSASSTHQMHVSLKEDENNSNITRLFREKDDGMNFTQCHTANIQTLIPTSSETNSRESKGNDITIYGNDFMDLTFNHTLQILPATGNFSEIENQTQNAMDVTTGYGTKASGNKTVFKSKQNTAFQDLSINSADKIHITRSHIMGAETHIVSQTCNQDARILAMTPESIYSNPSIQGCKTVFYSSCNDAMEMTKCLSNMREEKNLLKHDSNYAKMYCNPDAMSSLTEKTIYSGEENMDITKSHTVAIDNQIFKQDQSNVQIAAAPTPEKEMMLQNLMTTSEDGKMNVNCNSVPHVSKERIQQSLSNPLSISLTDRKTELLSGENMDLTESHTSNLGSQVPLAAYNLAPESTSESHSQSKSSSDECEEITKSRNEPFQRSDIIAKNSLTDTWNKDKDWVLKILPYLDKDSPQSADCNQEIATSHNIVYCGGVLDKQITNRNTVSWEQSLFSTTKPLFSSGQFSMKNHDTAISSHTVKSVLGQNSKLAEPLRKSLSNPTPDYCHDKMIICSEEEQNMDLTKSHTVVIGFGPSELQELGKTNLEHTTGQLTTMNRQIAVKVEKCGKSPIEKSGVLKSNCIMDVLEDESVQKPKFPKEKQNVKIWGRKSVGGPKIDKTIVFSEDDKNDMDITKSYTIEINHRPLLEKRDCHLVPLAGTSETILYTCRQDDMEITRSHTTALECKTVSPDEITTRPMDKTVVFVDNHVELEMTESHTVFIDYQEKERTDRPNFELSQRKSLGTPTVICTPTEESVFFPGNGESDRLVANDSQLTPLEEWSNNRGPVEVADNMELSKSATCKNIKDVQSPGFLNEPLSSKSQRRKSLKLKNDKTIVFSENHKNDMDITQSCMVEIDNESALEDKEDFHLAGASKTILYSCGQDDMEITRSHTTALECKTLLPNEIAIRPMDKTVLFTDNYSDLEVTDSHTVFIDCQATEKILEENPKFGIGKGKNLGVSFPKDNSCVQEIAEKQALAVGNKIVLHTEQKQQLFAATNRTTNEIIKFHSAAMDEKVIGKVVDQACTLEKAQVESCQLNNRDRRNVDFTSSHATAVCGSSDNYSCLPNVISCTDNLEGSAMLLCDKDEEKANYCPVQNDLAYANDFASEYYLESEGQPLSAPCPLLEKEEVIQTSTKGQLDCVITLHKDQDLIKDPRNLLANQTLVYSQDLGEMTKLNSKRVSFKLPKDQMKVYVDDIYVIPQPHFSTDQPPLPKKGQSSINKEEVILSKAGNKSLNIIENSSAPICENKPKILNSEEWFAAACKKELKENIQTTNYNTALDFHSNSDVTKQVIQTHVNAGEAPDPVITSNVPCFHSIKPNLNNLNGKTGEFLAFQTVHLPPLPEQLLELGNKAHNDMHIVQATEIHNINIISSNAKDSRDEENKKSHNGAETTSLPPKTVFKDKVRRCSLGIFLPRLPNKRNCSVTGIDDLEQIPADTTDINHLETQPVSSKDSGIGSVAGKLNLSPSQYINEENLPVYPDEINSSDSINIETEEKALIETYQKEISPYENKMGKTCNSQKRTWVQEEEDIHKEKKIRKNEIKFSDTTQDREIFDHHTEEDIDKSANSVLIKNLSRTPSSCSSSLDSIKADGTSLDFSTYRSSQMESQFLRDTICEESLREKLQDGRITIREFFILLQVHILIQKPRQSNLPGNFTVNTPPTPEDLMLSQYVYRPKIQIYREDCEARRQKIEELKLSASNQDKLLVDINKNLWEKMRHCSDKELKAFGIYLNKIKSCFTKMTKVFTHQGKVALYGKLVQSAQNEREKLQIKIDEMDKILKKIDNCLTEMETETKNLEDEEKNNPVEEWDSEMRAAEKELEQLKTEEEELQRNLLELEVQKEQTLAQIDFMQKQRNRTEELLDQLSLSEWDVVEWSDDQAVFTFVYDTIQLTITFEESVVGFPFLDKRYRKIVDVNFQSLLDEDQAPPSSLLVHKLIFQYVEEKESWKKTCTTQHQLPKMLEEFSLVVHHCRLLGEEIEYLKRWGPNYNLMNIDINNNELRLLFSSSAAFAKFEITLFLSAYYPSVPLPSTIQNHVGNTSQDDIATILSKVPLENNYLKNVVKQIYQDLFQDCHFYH

Kd: 100 nM
Substance: BUB1/BUB3 complex (from UniProt O43683)
